Patent publication US7943358B2, “Polymerase enhancing factor (PEF) extracts, PEF protein complexes, isolated PEF protein, and methods for purifying and identifying” (Agilent Technologies, Inc., priority 1997, dated 2011)

Key:
[1] = Reverse phase HPLC analysis of dUTP conversion; type: biochemical; details: 72° C.
Description: The similarity of P45 to dCTP deaminases prompted us to test whether dCTP or other nucleotide triphosphates were substrates of PEF/P45. PEF was incubated with dCTP or dUTP and the reaction products were separated by reverse phase HPLC. Reaction mixtures (50 μl) containing 1× cloned Pfu polymerase buffer, 10 mM dCTP or dUTP, and 700 ng PEF (or 5 μl of cloned p45 (˜100 ng) or nothing (neg. control)) were incubated at 72° C. for 1 hour. The samples were injected on a […] Waters Delta-pak C-18 column (300 angstrom/15 μm), equilibrated in 50 mM triethylammonium acetate, pH (7.0) (A). Products were eluted with acetonitrile (B) at 2 ml/min. using the following gradient: 0% B for 5 minutes, 0-10% B over 20 minutes. Absorbence of the eluate was monitored with a photodiode array detector, and peak areas were integrated at 260 nm.
In a separate Western assay, samples from Thermus thermophilis were run out on an SDS-PAGE gel and probed with the rP45 antisera. […] The PEF as dUTPase activity in these samples was further confirmed by a dUTP conversion assay employing reverse phase HPLC.

[2] = target: T1, cloned Pfu DNA polymerase (Pyrococcus furiosus, UniProt P61875); test: 6.2 kb primer-template PCR enhancing assay; type: biochemical
T1 sequence (P61875 1-775): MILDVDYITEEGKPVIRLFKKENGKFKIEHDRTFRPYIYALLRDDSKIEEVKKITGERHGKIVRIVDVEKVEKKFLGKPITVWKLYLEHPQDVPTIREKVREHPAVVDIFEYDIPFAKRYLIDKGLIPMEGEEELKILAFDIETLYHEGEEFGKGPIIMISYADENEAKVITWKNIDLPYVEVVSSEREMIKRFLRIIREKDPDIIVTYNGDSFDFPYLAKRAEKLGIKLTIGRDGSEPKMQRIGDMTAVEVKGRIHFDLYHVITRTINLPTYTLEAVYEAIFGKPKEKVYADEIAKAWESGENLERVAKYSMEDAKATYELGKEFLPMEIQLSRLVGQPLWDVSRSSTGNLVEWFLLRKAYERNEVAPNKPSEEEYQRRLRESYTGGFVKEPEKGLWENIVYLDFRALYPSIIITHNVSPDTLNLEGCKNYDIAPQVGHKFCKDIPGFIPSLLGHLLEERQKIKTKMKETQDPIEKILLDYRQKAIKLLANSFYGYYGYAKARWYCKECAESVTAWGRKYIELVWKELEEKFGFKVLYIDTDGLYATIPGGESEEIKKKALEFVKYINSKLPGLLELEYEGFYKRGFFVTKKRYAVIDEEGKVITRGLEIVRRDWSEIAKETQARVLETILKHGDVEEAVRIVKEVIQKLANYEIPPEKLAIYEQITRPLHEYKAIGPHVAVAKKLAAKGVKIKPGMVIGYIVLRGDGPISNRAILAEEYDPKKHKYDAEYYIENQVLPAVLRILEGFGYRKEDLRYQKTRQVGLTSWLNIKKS
Description: One embodiment of an assay used to screen for PEFs, in this case from Pyrococcus furiosus, involved amplifying a 6.2 kb target from transgenic mouse DNA (6.2 kb primer-template assay). A master PCR cocktail was prepared consisting of: 200 μM each dNTP, 2 μg/ml primer F432-21 (5′-CTA-TTG-AGT-ACG-AAC-GCC-ATC) (SEQ ID NO.: 62), 2 μg/ml primer R6656-20 (GTC-ACG-CTT-GCT-CCA-CTC-CG) (SEQ ID NO: 63), 2.5 μg/ml λAA742 DNA (transgenic mouse DNA having 40 copies of a lambda phage DNA shuttle vector), 1× cloned Pfu DNA polymerase PCR buffer (10 mM KCl, 10 mM (NH4)2SO4, 20 mM Tris-HCl (pH 8.8), 2 mM MgSO4, 0.1% (v/v) Triton X-100, and 100 μg/ml BSA), and 25 U/ml cloned Pfu DNA polymerase. Samples were diluted in 1× cloned Pfu DNA polymerase PCR buffer, and 1 μl of each diluted sample was added to 24 μl of the PCR cocktail. PCR amplifications were conducted on the RoboCycler 96 Temperature Cycler (Stratagene), using the following conditions: 96° C. for 45 s (1 cycle)/96° C. for 45 s; 60° C. for 45 s; 72° C. for 14 min. (35 cycles)/72° C. for 10 min. (1 cycle). PCR products (10 μl/lane) are run out on 1% agarose gels and PCR product bands visualized by ethidium bromide staining. […] When PCR enhancement is due to the presence of PEFs, rather than contaminating endogenous DNA polymerase activity, amplifications performed in the absence of […] yield no PCR product. Moreover, PCR amplifications performed in the absence of exogenous DNA template should yield no PCR product when the PEF sample lacks contaminating target DNA.

B1: PEF: polymerase enhancing factor complex purified from Pyrococcus furiosus; predominant components P50 and P45 (protein)
chain 1: MLHHVKLIYATKSRKLVGKKIVXXXPGSIAALDVKACEGLIRHGAEVHAVMSEAATKIIHPYAWNLPTGNPVITEITGFIEHVELAGEHENKADLILVCPATANTISKIACGIDDTPVTTVVTTAFPHIPIMIAPAMHETMYRHPIVRENIERLKKLGVEFIGPRIEEGRAKVASIDEIVYRVIKKLHKKTLEGKRVLVTAGATREYIDPIRFITNASSGKMGVALAEEADFRGAVTLIRTKGSVKAFRIRKIKLKVETVEEMLSAIENELRSKKYDVVIMAAAVSDFRPKIKAEGKIKSGRSITIELVPXNPKIIDRIKEIQPNVFLVGFKAETSKEKLIEEGKRQIERAKADLVVGNTLEAFGSEENQVVLIGRDFTKELPKMKKRELAERIWDEIEKXLS
chain 2: MLLPDWKIRKEILIEPFSEESLQPAGYDLRVGREAFVKGKLIDVEKEGKVVIPPREYALILTLERIKLPDDVMGDMKIRSSLAREGVIGSFAWVDPGWDGNLTLMLYNASNEPVELRYGERFVQIAFIRLEGPARNPYRGNYQGSTRLAFSKRKKL
modifications: not fully specified; X: residue not identified in the source
notes: polymerase enhancing factor complex purified from Pyrococcus furiosus; predominant components P50 and P45
[1]; 10 mM dUTP, one hour
  dUTP peak after incubation: 0.1 % total peak area
  new peak eluting at 4.400 minutes (dUMP): 98 % total peak area
[1]; 1 hour, 700 ng PEF
  dUTP converted: 100%
[2]
  excess PEF giving lower PCR product yield: ≥ 900 ng/100 μl
[2]; 10,000-fold range
  PEF concentration range enhancing performance of Pfu DNA polymerase in PCR: 0.09-900 ng/100 μl
[2]; listed as substantially homogeneous PEF
  very low PEF concentration giving lower PCR product yield: < 9 pg/100 μl
